Data: patent publication US20260216242A1 (ALMAC DISCOVERY, published 2026)

Columns and labels:
[1] = biological target: T1, human ALPP on CHO cells (human, UniProt P05187 23-506); experiment: flow cytometry, CHO cells stably expressing human ALPP; His6-tagged VHH detected with anti-His tag Ab and FITC anti-mouse Ab
T1 construct: whole, on cells; also called CHO-ALPP
Description: (§1) C-terminal His tagged VHH proteins were assessed for ALPP, ALPPL2, ALPI and ALPL cell-surface binding by flow cytometry. Binders encompassing different epitope bins were screened on CHO cells stably expressing ALPP, ALPPL2, ALPI or ALPL. High levels of cell-surface proteins expression were confirmed for each of the cell-lines by flow cytometry.
(§2) Cell surface binding of test agents to hALPP isoforms was characterized in four CHO-ALPP isoform stably transfected cell lines (CHO-ALPP, CHO-ALPPL2, CHO-ALPI and CHO-ALPL) and the resulting KDapp values determined. Adherent cells were detached from tissue culture flasks by incubating with 0.1% EDTA/PBS solution at 37° C. for ~10 minutes or until cells detached easily. Cells were re-suspended in ice-cold PBS/2% FCS in 15 ml tubes and centrifuged at 1700 rpm for 5 mins at 4° C. Supernatant was removed and the cell pellet re-suspended in PBS/2% FCS. […] Cells were incubated with 100 μl of test agents at a range of concentrations, plus controls for 1 hr on ice. The sample plate was centrifuged at 1700 rpm for 5 mins at 4° C. The supernatant was removed, and a wash performed by re-suspending the cell pellets in 0.25 mL of ice-cold PBS/2% FCS using a multichannel pipette. […] Binding of VHH (His6 tagged) agents was determined by adding 100 μl of anti-x6His tag Ab (Abcam) per cell pellet sample as appropriate and incubating on ice for 30 mins. […]

[2] = biological target: T2, Human ALPP (leucine zipper) (human); experiment: BLI, antigen immobilised
T2 construct: Whole entry: ALPP fused with a cysteine stabilised leucine zipper and His tag; also called hALPP
T2 chain: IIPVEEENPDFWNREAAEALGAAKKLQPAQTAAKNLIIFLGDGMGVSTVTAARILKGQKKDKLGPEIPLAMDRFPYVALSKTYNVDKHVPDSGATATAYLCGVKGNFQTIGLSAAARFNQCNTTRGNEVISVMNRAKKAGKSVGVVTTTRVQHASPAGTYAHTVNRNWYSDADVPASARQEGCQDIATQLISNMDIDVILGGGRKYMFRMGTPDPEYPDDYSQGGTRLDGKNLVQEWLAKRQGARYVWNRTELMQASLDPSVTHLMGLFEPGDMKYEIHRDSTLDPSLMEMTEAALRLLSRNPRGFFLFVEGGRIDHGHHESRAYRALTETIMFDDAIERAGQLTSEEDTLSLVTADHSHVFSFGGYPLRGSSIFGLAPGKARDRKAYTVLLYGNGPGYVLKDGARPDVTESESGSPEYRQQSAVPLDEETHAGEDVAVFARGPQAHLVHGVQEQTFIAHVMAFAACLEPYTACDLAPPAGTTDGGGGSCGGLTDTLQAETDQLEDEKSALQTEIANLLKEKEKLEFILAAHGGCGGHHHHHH
Description: (§3) Binding kinetics were determined using the Biolayer Interferometry (BLI) Octet K2 system (Sartorius). […] All assays were conducted in PBS with a plate temperature of 25° C. Ka (M⁻¹s⁻¹), Kd (s⁻¹) and KD (nM) values were determined using Octet Data Analysis High Throughput software (ForteBio) for Biolayer Interferometry.

[3] = biological target: T3, Human ALPPL2 (leucine zipper) (human); experiment: BLI, antigen immobilised
T3 construct: Whole entry: fused with a cysteine stabilised leucine zipper and His tag; also called hALPPL2
T3 chain: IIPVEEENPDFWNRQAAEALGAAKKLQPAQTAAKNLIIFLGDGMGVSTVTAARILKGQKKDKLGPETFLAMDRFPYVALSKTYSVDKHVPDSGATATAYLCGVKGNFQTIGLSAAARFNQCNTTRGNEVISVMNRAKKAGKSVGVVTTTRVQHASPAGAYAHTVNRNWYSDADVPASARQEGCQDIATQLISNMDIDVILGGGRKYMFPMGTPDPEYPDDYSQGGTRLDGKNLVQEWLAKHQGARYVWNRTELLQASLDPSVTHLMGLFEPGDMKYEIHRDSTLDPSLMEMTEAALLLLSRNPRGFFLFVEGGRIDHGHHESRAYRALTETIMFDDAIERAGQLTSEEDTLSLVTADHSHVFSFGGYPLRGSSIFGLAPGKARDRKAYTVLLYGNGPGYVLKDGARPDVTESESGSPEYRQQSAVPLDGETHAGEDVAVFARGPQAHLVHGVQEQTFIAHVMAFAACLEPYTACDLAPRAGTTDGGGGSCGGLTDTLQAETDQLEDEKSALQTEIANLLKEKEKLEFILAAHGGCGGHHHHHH
Description: as §3

[4] = biological target: T1, human ALPP on CHO cells; experiment: flow cytometry, CHO cells, KDapp
Description: (§4) Cell surface binding of test agents to hALPP isoforms was characterized in four CHO-ALPP isoform stably transfected cell lines (CHO-ALPP, CHO-ALPPL2, CHO-ALPI and CHO-ALPL) and the resulting KDapp values determined. Adherent cells were detached from tissue culture flasks by incubating with 0.1% EDTA/PBS solution at 37° C. for ~10 minutes or until cells detached easily. Cells were re-suspended in ice-cold PBS/2% FCS in 15 ml tubes and centrifuged at 1700 rpm for 5 mins at 4° C. Supernatant was removed and the cell pellet re-suspended in PBS/2% FCS. […] Cells were incubated with 100 μl of test agents at a range of concentrations, plus controls for 1 hr on ice. The sample plate was centrifuged at 1700 rpm for 5 mins at 4° C. The supernatant was removed, and a wash performed by re-suspending the cell pellets in 0.25 mL of ice-cold PBS/2% FCS using a multichannel pipette. Samples were again centrifuged at 1700 rpm for 5 min at 4° C. Supernatant was removed and two further washes performed as described. After the final wash and centrifugation step, excess liquid was removed by blotting the plate on tissue paper. Binding of VHH (His6 tagged) agents was determined by adding 100 μl of anti-x6His tag Ab (Abcam) per cell pellet sample as appropriate and incubating on ice for 30 mins. Wash steps were performed as described previously. Fitc-anti-mouse antibody (ThermoFisher) was used to detect binding of the VHH (His6 tagged) agents by incubating with the appropriate samples for 30 min on ice in the dark. Wash steps were performed as described previously. All cell pellets were finally re-suspended in […] of ice-cold PBS/2% FCS and left on ice in the dark prior to analysis on a Merck-Millipore Guava EasyCyte HT or Thermo Fisher Attune N×T flow cytometer.

[5] = biological target: T4, human ALPPL2 on CHO cells (human, UniProt P10696 20-503); experiment: flow cytometry, CHO cells, KDapp
T4 construct: whole, on cells; also called CHO-ALPPL2
Description: as §4

[6] = biological target: T4, human ALPPL2 on CHO cells; experiment: flow cytometry, CHO cells stably expressing human ALPPL2; His6-tagged VHH detected with anti-His tag Ab and FITC anti-mouse Ab
Description: as §1, §2

[7] = biological target: T1, human ALPP on CHO cells; experiment: flow cytometry, CHO cells stably expressing human ALPP; PDC detected with FITC anti-human Ab
Description: (§5) Biparatopic VHH-hFc drug conjugates were assessed for human ALPP, ALPPL2, ALPI and ALPL cell-surface binding by flow cytometry. Binders were screened on CHO cells stably expressing human ALPP, ALPPL2, ALPI or ALPL.
(§6) Cell surface binding of test agents to hALPP isoforms was characterized in four CHO-ALPP isoform transfectant cell lines (CHO-ALPP, CHO-ALPPL2, CHO-ALPI and CHO-ALPL) and the resulting KDapp values determined. Adherent cells were detached from tissue culture flasks by incubating with 0.1% EDTA/PBS solution at 37° C. for […] or until cells detached easily. Cells were re-suspended in ice-cold PBS/2% FCS in 15 ml tubes and centrifuged at 1700 rpm for 5 mins at 4° C. Supernatant was removed and the cell pellet re-suspended in PBS/2% FCS. […] Cells were incubated with 100 μl of test agents at a range of concentrations, plus controls for 1 hr on ice. The sample plate was centrifuged at 1700 rpm for 5 mins at 4° C. The supernatant was removed, and a wash performed by re-suspending the cell pellets in 0.25 mL of ice-cold PBS/2% FCS using a multichannel pipette. Samples were again centrifuged at 1700 rpm for 5 min at 4° C. Supernatant was removed and two further washes performed as described. […] Binding of VHH-hFc agents was determined by adding 100 μl of Fitc-anti-human Ab (ThermoFisher) and incubating for 30 mins on ice in the dark. […]

[8] = biological target: T5, human ALPL on CHO cells (human, UniProt P05186 18-501); experiment: flow cytometry, CHO cells stably expressing human ALPL; PDC detected with FITC anti-human Ab
T5 construct: whole, on cells; also called CHO-ALPL
T5 sequence (looked up): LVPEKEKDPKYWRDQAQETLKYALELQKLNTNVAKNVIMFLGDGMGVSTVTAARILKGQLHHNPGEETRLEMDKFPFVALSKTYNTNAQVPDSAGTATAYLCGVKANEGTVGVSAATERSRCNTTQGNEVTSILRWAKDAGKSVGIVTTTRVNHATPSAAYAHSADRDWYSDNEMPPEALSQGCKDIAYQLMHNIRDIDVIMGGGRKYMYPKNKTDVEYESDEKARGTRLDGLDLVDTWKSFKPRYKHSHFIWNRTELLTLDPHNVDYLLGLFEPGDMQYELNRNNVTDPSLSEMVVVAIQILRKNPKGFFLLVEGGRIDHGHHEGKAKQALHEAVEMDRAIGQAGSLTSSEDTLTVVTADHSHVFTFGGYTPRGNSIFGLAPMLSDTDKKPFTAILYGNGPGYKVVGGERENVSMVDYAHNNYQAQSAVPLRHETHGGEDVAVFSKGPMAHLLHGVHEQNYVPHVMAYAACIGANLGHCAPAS
In short: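 Cell-surface binding to CHO cells stably transfected with human ALPP, ALPPL2, ALPI or ALPL; cells detached with 0.1% EDTA/PBS, incubated with biparatopic VHH-hFc drug conjugates over a concentration range for 1 hr on ice. Bound agent detected with FITC anti-human Ab (30 min, ice, dark) by flow cytometry; KDapp derived from binding.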

[9] = biological target: T4, human ALPPL2 on CHO cells; experiment: flow cytometry, CHO cells stably expressing human ALPPL2; PDC detected with FITC anti-human Ab
Description: as §5, §6

B1: B01 His (VHH, not shown: small tags and cut ends)
VHH: QVQLVESGGGLVQAGGSLRLSCEVTRSPMPIDTMAWYRQAPGRQRELVAIISRSGSTNYADSVKGRFTISRNDTKSTMYKSTMYLKMNTLELEDTGVYYCNAVGLWNGAEYWGQGTQVTVSS
EC50 (read off the curve) [1]: ~5 nM
Kd [2]: 1.18 nM
koff [2]: 0.000191 s⁻¹
kon [2]: 162000 M⁻¹ s⁻¹
Kd [3]: 0.29 nM
koff [3]: 0.00014 s⁻¹
kon [3]: 482000 M⁻¹ s⁻¹
Kd [4]: 5.3 nM
Kd [5]: 5 nM
EC50 (read off the curve) [6]: ~5 nM

B2: D10-A06-hFc-vcPAB-MMAE [G4S]1 (Fc fusion, DAR 4)
chain 1: QVQLVESGGGLVQPGGSLRLSCAASGSIFSVNTMGWYRQAPGKQRDLVAVATSGGTIHYADSVKGRFTISRDNAKNTVYLQMNSLKPEDTAVYYCNLVVPYGMIAGDHDYWGQGTKVTVSSGGGGSEPKSSDKTHTCPPCPAPELLGGPCVFLFPPKPKDTLMISRTPEVTCVVVDVSHEDPEVKFNWYVDGVEVHNAKTKPREEQYNSTYRVVSVLTVLHQDWLNGKEYKCKVSNKALPAPIEKTISKAKGQPREPQVYTLPPSRDELTKNQVSLYCLVKGFYPSDIAVEWESNGQPENNYKTTPPVLDSDGSFFLYSKLTVDKSRWQQGNVFSCSVMHEALHNHYTQKSLCLSPGK
chain 2: QVHLVESGGGLVQAGGSLRLSCAASGRTFLSMGWFRQAPGKEREFVAAISWTGGSTGYADSVKGRFTISRESDKETMYLQMNSLKPEDTAVYYCAARGDVYYGGDDATRYKYWGQGTQVTVSSGGGGSEPKSSDKTHTCPPCPAPELLGGPCVFLFPPKPKDTLMISRTPEVTCVVVDVSHEDPEVKFNWYVDGVEVHNAKTKPREEQYNSTYRVVSVLTVLHQDWLNGKEYKCKVSNKALPAPIEKTISKAKGQPREPQVYTLPPSRDELTKNQVSLTCLVKGFYPSDIAVEWESNGQPENNYKTTPPVLDSDGSFFLTSKLTVDKSRWQQGNVFSCSVMHEALHNHYTQKSLCLSPGK
modifications: MC-vc-PAB-MMAE on Cys 239 and Cys 442 (EU numbering)
notes: Biparatopic drug conjugate, DAR 4; also called #676
EC50 (read off the curve) [7]: 10 to 22 nM
binding result [8]: no binding (tested: 350 nM)

B3: D10-A06 hFc-vcPAB-MMAE [G4S]3 (Fc fusion, DAR 4)
chain 1: QVQLVESGGGLVQPGGSLRLSCAASGSIFSVNTMGWYRQAPGKQRDLVAVATSGGTIHYADSVKGRFTISRDNAKNTVYLQMNSLKPEDTAVYYCNLVVPYGMIAGDHDYWGQGTKVTVSSGGGGSGGGGSGGGGSEPKSSDKTHTCPPCPAPELLGGPCVFLFPPKPKDTLMISRTPEVTCVVVDVSHEDPEVKFNWYVDGVEVHNAKTKPREEQYNSTYRVVSVLTVLHQDWLNGKEYKCKVSNKALPAPIEKTISKAKGQPREPQVYTLPPSRDELTKNQVSLYCLVKGFYPSDIAVEWESNGQPENNYKTTPPVLDSDGSFFLYSKLTVDKSRWQQGNVFSCSVMHEALHNHYTQKSLCLSPGK
chain 2: QVHLVESGGGLVQAGGSLRLSCAASGRTFLSMGWFRQAPGKEREFVAAISWTGGSTGYADSVKGRFTISRESDKETMYLQMNSLKPEDTAVYYCAARGDVYYGGDDATRYKYWGQGTQVTVSSGGGGSGGGGSGGGGSEPKSSDKTHTCPPCPAPELLGGPCVFLFPPKPKDTLMISRTPEVTCVVVDVSHEDPEVKFNWYVDGVEVHNAKTKPREEQYNSTYRVVSVLTVLHQDWLNGKEYKCKVSNKALPAPIEKTISKAKGQPREPQVYTLPPSRDELTKNQVSLTCLVKGFYPSDIAVEWESNGQPENNYKTTPPVLDSDGSFFLTSKLTVDKSRWQQGNVFSCSVMHEALHNHYTQKSLCLSPGK
modifications: MC-vc-PAB-MMAE on Cys 239 and Cys 442 (EU numbering)
notes: Biparatopic drug conjugate, DAR 4; also called #633
binding result [8]: no binding (tested: 350 nM)
EC50 (read off the curve) [9]: ~5 nM
